Assay results taken from paper PMC4295836 (Arteriosclerosis, thrombosis, and vascular biology, 2013).
Blank lines part the entries; values can stand above or below the binder they belong to.

Target: T1, G-protein–coupled receptor kinase–interacting protein-1 (human (endogenous in HUVEC), UniProt Q9Y2X7 1-761)
T1 sequence (looked up): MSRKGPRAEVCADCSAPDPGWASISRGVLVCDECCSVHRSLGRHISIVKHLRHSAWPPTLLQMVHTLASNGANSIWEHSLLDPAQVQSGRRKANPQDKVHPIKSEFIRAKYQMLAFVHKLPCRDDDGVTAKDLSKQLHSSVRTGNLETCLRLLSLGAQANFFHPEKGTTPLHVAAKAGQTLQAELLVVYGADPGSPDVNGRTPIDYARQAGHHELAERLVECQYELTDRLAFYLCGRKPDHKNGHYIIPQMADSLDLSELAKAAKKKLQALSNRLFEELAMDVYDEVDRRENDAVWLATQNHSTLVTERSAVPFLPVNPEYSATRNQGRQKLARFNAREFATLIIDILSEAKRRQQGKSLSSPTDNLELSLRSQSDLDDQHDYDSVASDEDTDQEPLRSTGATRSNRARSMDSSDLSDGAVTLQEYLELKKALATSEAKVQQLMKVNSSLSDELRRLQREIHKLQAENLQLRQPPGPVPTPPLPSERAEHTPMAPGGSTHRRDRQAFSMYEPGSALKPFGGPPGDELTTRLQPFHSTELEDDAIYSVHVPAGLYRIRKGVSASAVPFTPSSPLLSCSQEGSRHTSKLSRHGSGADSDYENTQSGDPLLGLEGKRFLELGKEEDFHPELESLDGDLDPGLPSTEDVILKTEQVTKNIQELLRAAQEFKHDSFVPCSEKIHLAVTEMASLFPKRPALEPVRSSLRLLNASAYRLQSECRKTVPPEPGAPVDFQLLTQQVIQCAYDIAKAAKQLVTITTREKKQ
Assay: co-IP

fold increase of association on VEGF (vs unstimulated): 6 fold
B1: cortactin (natural protein, human (endogenous in HUVEC), UniProt Q14247 1-550, looked up)
chain: MWKASAGHAVSIAQDDAGADDWETDPDFVNDVSEKEQRWGAKTVQGSGHQEHINIHKLRENVFQEHQTLKEKELETGPKASHGYGGKFGVEQDRMDKSAVGHEYQSKLSKHCSQVDSVRGFGGKFGVQMDRVDQSAVGFEYQGKTEKHASQKDYSSGFGGKYGVQADRVDKSAVGFDYQGKTEKHESQRDYSKGFGGKYGIDKDKVDKSAVGFEYQGKTEKHESQKDYVKGFGGKFGVQTDRQDKCALGWDHQEKLQLHESQKDYKTGFGGKFGVQSERQDSAAVGFDYKEKLAKHESQQDYSKGFGGKYGVQKDRMDKNASTFEDVTQVSSAYQKTVPVEAVTSKTSNIRANFENLAKEKEQEDRRKAEAERAQRMAKERQEQEEARRKLEEQARAKTQTPPVSPAPQPTEERLPSSPVYEDAASFKAELSYRGPVSGTEPEPVYSMEAADYREASSQQGLAYATEAVYESAEAPGHYPAEDSTYDEYENDLGITAVALYDYQAAGDDEISFDPDDIITNIEMIDDGWWRGVCKGRYGLFPANYVELRQ

fold increase of its level in the GIT1–cortactin complex on VEGF: 4 fold
B2: phosphorylated S405-cortactin (natural protein, human (endogenous in HUVEC), UniProt Q14247 1-550, looked up)
chain: B1 chain
modifications: phosphoserine at 405
